# Source: FireProtDB
# B1: Ribonuclease HI, P0A7Y4 (parent)
# chain: MLKQVEIFTDGSCLGNPGPGGYGAILRYRGREKTFSAGYTRTTNNRMELMAAIVALEALKEHCEVILSTDSQYVRQGITQWIHNWKKRGWKTADKKPVKNVDLWQRLDAALGQHQIKWEWVKGHAGHPENERCDELARAAAMNPTLEDTGYQVEV
# B2: Ornithine carbamoyltransferase subunit I, P04391 (parent)
# chain: MSGFYHKHFLKLLDFTPAELNSLLQLAAKLKADKKSGKEEAKLTGKNIALIFEKDSTRTRCSFEVAAYDQGARVTYLGPSGSQIGHKESIKDTARVLGRMYDGIQYRGYGQEIVETLAEYASVPVWNGLTNEFHPTQLLADLLTMQEHLPGKAFNEMTLVYAGDARNNMGNSMLEAAALTGLDLRLVAPQACWPEAALVTECRALAQQNGGNITLTEDVAKGVEGADFIYTDVWVSMGEAKEKWAERIALLREYQVNSKMMQLTGNPEVKFLHCLPAFHDDQTTLGKKMAEEFGLHGGMEVTDEVFESAASIVFDQAENRMHTIKAVMVATLSK
# B3: Subtilisin-chymotrypsin inhibitor-2A, P01053 (parent)
# chain: MSSVEKKPEGVNTGAGDRHNLKTEWPELVGKSVEEAKKVILQDKPEAQIIVLPVGTIVTMEYRIDRVRLFVDKLDNIAQVPRVG
# Variants of: B1
# Conditions: Escherichia coli (strain K12); pH 3; 50.1 °C; Thermal; CD; glycine-HCl 10 mM; NaCl 0.1 M; reversible: yes; structure 2RN2; whole UniProt chain shown
row,Variant,ddG of mutation (higher = less stable) [kcal/mol]
1,H62R,0.03
2,H62P,-1
3,E135K,1.1
4,R41C,-0.12
5,E119V K60R,0.06

# Same assay, conditions: Escherichia coli (strain K12); pH 3; Thermal; CD; glycine-HCl 10 mM; NaCl 0.1 M; reversible: yes; structure 2RN2; whole UniProt chain shown
Variant,Tm [°C],"change of melting temperature, mutant - wild type (higher = more stable) [°C]",unfolding enthalpy (van 't Hoff) [kcal/mol]
H62R,50,-0.1,114
H62P,53.5,3.4,110
E135K,46.4,-3.7,99
E119V K60R,49.9,-0.2,109

# Same assay, conditions: Escherichia coli (strain K12); pH 5.5; 52.7 °C; Thermal; CD; Sodium acetate 20 mM; NaCl 0.1 M; reversible: yes; structure 2RN2; whole UniProt chain shown
row,Variant,ddG of mutation (higher = less stable) [kcal/mol]
1,H62R,-0.36
2,H62P,-1.1
3,E135K,0.22
4,R41C,-0.44
5,E119V K60R,-0.63

# Same assay, conditions: Escherichia coli (strain K12); pH 5.5; Thermal; CD; Sodium acetate 20 mM; NaCl 0.1 M; reversible: yes; structure 2RN2; whole UniProt chain shown
Variant,Tm [°C],"change of melting temperature, mutant - wild type (higher = more stable) [°C]",unfolding enthalpy (van 't Hoff) [kcal/mol]
H62R,54,1.3,97.1
H62P,56.8,4.1,102
E135K,51.9,-0.8,89.9
R41C,54.3,1.6,102
E119V K60R,55,2.3,98.6

# Same assay, conditions: Escherichia coli (strain K12); pH 3; 49.8 °C; Thermal; CD; glycine-HCl 10 mM; reversible: yes; structure 2RN2; whole UniProt chain shown
row,Variant,ddG of mutation (higher = less stable) [kcal/mol]
1,H62P,-1
2,D94R K95G,-1.1
3,Q113P,0.2
4,G77A,0.9
5,A125T,-0.1

# Same assay, conditions: Escherichia coli (strain K12); pH 3; Thermal; CD; glycine-HCl 10 mM; reversible: yes; structure 2RN2; whole UniProt chain shown
Variant,Tm [°C],"change of melting temperature, mutant - wild type (higher = more stable) [°C]",unfolding enthalpy (van 't Hoff) [kcal/mol]
H62P,53.2,3.4,110
D94E,49.8,-1.2,95.9
D94R K95G,53.4,3.6,127
Q113P,49.2,-0.6,100
G77A,46.9,-2.9,
A125T,50.2,0.4,96.4

# Same assay, conditions: Escherichia coli (strain K12); pH 5.5; 25 °C; GdnHCl; CD; Sodium acetate 20 mM; reversible: yes; structure 2RN2; whole UniProt chain shown
Variant,ddG of mutation (higher = less stable) [kcal/mol],denaturant m value [kcal/mol/M],denaturant midpoint (higher = more stable) [M],unfolding free energy [kcal/mol]
H62P,-0.74,4.98,1.98,9.89

# Same assay, conditions: Escherichia coli (strain K12); pH 5.5; 52 °C; Thermal; CD; Sodium acetate 20 mM; reversible: yes; structure 2RN2; whole UniProt chain shown
row,Variant,ddG of mutation (higher = less stable) [kcal/mol]
1,H62P,-1.1
2,Q113P,0.6

# Same assay, conditions: Escherichia coli (strain K12); pH 5.5; Thermal; CD; Sodium acetate 20 mM; reversible: yes; structure 2RN2; whole UniProt chain shown
Variant,Tm [°C],"change of melting temperature, mutant - wild type (higher = more stable) [°C]",unfolding enthalpy (van 't Hoff) [kcal/mol]
H62P,56.1,4.1,102
D94E,52,-1.6,92.9
Q113P,49.9,-2.1,81

# Same assay, conditions: Escherichia coli (strain K12); pH 5.5; 49.8 °C; Thermal; CD; Sodium acetate 20 mM; reversible: yes; structure 2RN2; whole UniProt chain shown
row,Variant,ddG of mutation (higher = less stable) [kcal/mol]
1,D94E,0.4

# Same assay, conditions: Escherichia coli (strain K12); pH 5.5; 25 °C; Urea; CD; sodium acetate 20 mM; KCl 50 mM; structure 2RN2; whole UniProt chain shown
Variant,ddG of mutation (higher = less stable) [kcal/mol],denaturant m value [kcal/mol/M],unfolding free energy [kcal/mol]
I53D,4.1,2,5.6
I53L,1.4,2.3,8.3
I53F,3.9,2,5.8

# Same assay, conditions: Escherichia coli (strain K12); pH 5.5; 49.8 °C; Thermal; CD; glycine-HCl 10 mM; reversible: yes; structure 2RN2; whole UniProt chain shown
row,Variant,ddG of mutation (higher = less stable) [kcal/mol]
1,D94R K95G,-1.5

# Same assay, conditions: Escherichia coli (strain K12); pH 5.5; Thermal; CD; glycine-HCl 10 mM; reversible: yes; structure 2RN2; whole UniProt chain shown
Variant,Tm [°C],"change of melting temperature, mutant - wild type (higher = more stable) [°C]",unfolding enthalpy (van 't Hoff) [kcal/mol]
D94R K95G,57.5,5.5,102
A125T,52,0,88.8

# Same assay, conditions: Escherichia coli (strain K12); pH 5.5; 52 °C; Thermal; CD; glycine-HCl 10 mM; reversible: yes; structure 2RN2; whole UniProt chain shown
row,Variant,ddG of mutation (higher = less stable) [kcal/mol]
1,A125T,0

# Variants of: B2
# Conditions: Escherichia coli (strain K12); pH 8.3; Thermal; DSC; borate 40 mM; structure 1AKM; whole UniProt chain shown
Variant,Tm [°C],unfolding enthalpy (calorimetric) [kcal/mol]
K87Q,69.7,690
R320A,69.6,710
A326G,63,660

# Variants of: B3
# Conditions: Hordeum vulgare; pH 6.3; 25 °C; GdnHCl; Fluorescence; MES 50 mM; structure 2CI2; whole UniProt chain shown
row,Variant,unfolding free energy [kcal/mol]
1,P53E F70A,2.61
